Substitutions are numbered along the chain they refer to. Names may count otherwise.
What was measured:
Assay in all cases: cell-based or functional assay
[1] = target: wildtype human BMP2 (human) (UniProt P12643)
[2] = target: hBMP2(N341 V-N384W) (human) (UniProt P12643)
murine Acvr2a = murine Acvr2a (murine, UniProt P27038 20-513)
murine Bmpr2 = target: T1, murine Bmpr2 (murine, UniProt O35607 27-1038)
T1 sequence (looked up): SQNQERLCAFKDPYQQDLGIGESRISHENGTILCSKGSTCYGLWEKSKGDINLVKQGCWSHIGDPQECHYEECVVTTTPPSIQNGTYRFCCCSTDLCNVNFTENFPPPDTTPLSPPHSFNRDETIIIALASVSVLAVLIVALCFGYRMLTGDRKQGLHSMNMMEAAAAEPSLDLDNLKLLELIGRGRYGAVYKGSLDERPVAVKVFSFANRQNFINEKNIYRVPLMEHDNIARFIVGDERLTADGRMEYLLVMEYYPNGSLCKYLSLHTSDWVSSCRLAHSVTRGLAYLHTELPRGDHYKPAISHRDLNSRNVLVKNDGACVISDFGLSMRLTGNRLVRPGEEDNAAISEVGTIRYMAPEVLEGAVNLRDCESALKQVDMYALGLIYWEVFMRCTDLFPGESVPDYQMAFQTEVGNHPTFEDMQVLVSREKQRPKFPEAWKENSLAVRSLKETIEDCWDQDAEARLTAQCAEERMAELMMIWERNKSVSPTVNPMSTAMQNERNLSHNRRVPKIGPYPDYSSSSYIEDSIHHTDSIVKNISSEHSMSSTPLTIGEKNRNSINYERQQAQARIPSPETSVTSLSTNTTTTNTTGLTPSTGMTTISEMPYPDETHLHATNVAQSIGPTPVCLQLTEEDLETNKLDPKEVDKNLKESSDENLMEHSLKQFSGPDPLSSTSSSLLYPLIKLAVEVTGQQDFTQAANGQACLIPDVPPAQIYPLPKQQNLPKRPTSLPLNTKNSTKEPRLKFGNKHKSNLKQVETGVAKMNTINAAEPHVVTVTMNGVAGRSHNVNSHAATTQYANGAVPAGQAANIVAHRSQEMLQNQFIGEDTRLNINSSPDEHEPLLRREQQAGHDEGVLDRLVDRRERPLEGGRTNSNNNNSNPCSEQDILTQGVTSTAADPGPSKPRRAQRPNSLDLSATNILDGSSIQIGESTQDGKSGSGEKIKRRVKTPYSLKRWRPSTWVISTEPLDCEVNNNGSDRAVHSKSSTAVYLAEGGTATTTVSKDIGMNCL

murine Acvr2b = murine Acvr2b (murine, UniProt P27040 19-536)
Sequence of murine Acvr2b (P27040 19-536): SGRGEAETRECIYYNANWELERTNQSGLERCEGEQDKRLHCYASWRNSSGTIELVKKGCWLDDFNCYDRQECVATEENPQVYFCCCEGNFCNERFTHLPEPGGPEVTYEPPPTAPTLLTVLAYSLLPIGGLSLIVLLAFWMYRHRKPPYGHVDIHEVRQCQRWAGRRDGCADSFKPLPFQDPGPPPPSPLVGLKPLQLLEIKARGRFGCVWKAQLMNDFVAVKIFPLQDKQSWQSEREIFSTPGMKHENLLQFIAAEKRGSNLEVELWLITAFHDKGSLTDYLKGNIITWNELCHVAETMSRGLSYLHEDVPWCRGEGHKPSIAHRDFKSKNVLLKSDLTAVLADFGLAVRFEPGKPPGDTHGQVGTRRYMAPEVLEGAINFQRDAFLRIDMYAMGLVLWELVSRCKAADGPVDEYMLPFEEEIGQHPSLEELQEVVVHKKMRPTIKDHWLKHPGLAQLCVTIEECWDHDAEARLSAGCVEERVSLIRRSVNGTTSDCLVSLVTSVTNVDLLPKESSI

murine Actr1 b = target: T2, murine Actr1 b (murine, UniProt Q61271 24-505)
T2 sequence (looked up): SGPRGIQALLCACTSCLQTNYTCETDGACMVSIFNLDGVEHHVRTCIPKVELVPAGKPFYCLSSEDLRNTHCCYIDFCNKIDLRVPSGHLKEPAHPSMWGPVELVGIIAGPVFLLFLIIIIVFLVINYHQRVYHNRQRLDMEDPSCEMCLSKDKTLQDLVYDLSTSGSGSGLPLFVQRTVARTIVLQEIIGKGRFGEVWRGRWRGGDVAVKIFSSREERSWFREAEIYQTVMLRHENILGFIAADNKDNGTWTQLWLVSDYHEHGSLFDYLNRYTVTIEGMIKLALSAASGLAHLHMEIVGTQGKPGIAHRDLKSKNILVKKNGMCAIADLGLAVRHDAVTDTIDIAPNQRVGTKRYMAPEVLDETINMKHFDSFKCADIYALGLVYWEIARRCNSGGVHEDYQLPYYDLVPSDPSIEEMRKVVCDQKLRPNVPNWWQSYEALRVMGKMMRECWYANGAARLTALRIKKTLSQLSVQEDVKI

murine Acvrl1 = target: T3, murine Acvrl1 (murine, UniProt Q61288 23-502)
T3 sequence (looked up): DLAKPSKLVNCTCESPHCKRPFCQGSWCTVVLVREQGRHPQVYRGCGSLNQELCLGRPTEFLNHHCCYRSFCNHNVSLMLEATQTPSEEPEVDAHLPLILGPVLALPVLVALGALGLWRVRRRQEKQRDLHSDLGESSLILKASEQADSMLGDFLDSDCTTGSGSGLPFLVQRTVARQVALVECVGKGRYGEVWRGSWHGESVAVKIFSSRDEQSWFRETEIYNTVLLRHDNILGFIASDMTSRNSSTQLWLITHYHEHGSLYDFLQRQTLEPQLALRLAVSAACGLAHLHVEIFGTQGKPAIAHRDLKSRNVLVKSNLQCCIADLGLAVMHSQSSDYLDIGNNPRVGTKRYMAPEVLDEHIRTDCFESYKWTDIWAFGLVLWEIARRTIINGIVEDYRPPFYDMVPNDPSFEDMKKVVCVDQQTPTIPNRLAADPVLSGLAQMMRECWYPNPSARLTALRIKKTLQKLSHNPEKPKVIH

murine Acvr1 = target: T4, murine Acvr1 (murine, UniProt P37172 21-509)
T4 sequence (looked up): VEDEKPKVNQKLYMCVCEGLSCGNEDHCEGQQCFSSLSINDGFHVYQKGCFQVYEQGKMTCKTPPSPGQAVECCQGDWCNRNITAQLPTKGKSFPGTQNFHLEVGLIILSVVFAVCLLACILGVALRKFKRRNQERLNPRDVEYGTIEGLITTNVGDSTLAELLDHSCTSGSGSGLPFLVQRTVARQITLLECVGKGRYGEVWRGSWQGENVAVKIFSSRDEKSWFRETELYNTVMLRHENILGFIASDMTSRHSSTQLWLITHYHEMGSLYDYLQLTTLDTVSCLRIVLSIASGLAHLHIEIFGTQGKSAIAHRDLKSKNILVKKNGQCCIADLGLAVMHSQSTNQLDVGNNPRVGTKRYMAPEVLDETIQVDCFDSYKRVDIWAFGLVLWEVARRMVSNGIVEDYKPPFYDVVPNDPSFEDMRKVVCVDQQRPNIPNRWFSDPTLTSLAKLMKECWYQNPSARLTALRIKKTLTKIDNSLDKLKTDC

murine Tβr1 = target: T5, murine Tβr1 (murine, UniProt Q64729 30-503)
T5 sequence (looked up): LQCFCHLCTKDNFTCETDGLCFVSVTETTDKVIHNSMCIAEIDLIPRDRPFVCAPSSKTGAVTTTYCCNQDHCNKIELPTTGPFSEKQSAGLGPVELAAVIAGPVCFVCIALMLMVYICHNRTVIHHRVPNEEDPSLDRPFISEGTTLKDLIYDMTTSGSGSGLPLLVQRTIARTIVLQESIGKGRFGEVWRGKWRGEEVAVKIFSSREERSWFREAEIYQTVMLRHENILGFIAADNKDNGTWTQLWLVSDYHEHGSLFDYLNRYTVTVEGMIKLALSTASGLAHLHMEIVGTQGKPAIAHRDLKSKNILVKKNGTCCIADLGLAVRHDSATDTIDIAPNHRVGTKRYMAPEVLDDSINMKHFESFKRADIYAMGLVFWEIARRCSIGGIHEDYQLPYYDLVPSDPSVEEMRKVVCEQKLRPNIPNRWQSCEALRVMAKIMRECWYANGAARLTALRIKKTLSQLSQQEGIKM

murine Acvr1 c = target: T6, murine Acvr1 c (murine, UniProt Q8K348 26-493)
T6 sequence (looked up): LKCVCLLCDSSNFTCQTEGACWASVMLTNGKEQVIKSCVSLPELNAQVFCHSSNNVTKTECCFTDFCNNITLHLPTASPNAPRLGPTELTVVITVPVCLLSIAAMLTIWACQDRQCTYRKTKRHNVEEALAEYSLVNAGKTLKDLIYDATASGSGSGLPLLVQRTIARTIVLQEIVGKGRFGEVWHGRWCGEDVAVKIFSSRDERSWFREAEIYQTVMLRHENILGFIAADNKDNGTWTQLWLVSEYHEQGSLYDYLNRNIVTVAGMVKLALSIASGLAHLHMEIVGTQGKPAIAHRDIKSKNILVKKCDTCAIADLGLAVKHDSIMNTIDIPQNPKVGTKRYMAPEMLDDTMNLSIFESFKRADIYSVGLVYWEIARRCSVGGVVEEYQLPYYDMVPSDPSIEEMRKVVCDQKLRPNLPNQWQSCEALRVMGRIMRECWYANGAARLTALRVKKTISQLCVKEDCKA

murine Bmpr1b = murine Bmpr1b (murine, UniProt P36898 14-502)
Sequence of murine Bmpr1b (P36898 14-502): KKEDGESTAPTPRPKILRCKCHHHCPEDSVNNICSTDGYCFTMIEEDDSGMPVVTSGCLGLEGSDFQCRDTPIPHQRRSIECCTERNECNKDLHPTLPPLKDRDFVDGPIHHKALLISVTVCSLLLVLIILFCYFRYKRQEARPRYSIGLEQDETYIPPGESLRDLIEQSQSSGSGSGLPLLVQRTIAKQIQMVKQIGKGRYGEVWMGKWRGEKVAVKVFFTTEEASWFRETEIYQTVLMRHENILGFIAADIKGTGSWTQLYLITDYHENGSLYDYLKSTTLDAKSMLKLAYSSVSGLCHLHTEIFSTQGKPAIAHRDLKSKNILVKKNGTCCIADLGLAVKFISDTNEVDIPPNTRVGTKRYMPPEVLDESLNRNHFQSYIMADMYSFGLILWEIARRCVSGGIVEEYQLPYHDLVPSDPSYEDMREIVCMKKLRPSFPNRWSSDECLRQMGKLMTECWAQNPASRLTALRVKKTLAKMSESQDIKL

murine Bmpr1a = murine Bmpr1a (murine, UniProt P36895 24-532)
Sequence of murine Bmpr1a (P36895 24-532): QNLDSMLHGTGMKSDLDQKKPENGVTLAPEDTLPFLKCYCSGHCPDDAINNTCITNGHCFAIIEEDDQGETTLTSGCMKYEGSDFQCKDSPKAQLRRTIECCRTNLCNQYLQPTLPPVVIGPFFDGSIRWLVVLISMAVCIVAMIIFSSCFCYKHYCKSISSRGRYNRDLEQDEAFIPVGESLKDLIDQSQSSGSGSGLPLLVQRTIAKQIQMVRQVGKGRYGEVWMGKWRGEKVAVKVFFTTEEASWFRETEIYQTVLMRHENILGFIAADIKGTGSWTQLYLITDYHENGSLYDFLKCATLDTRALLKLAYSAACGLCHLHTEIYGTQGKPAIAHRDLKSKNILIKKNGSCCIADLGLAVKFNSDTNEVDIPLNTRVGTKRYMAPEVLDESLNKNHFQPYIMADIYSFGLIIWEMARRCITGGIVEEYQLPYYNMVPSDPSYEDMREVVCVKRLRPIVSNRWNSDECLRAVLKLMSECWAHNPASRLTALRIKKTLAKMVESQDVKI

Sequence of murine Acvr2a (P27038 20-513): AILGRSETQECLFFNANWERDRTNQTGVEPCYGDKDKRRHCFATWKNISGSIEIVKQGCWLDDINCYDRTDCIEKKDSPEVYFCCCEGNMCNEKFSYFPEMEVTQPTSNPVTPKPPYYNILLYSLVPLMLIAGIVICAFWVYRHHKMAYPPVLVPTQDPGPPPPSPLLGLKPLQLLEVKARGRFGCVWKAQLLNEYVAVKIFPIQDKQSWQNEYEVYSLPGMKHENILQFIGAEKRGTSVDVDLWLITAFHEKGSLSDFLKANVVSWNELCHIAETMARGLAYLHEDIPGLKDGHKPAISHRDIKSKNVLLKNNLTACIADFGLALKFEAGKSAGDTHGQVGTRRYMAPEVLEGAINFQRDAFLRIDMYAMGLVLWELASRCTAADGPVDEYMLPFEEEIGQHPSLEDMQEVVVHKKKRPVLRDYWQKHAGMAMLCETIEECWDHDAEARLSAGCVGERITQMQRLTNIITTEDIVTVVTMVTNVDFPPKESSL

## human NOG (Noggin) (from UniProt Q13253 28-232)
[1]
  rel. luciferase activity (SBE reporter, NIH3T3 cells) at 5x surplus of co-transfected NOG DNA (rel. luciferase activity): 1.53
  rel. luciferase activity (SBE reporter, NIH3T3 cells) at 50x surplus of co-transfected NOG DNA (rel. luciferase activity): 1.51
[2]
  NOG DNA surplus that blocks SBE reporter activation to control levels, NIH3T3 cells (fold surplus of transfected NOG-DNA): 500
  rel. luciferase activity (SBE reporter, NIH3T3 cells) at 5x surplus of co-transfected NOG DNA (rel. luciferase activity): 9.31
  rel. luciferase activity (SBE reporter, NIH3T3 cells) at 50x surplus of co-transfected NOG DNA (rel. luciferase activity): 7.11
[2]; scale: % of the wild-type activity in the absence of its antagonist
  chondrogenic potential in chicken micromass culture (Alcian blue), NOG co-expressed: > 100

B1: wildtype human BMP2 (ligand)
chain: QAKHKQRKRLKSSCKRHPLYVDFSDVGWNDWIVAPPGYHAFYCHGECPFPLADHLNSTNHAIVQTLVNSVNSKIPKACCVPTELSAISMLYLDENEKVVLKNYQDMVVEGCGCR
Murine Acvr2a
  rel. luciferase activity (SBE reporter, COS-1 cells): 57.4 rel. luciferase activity
Murine Bmpr2
  rel. luciferase activity (SBE reporter, COS-1 cells): 268 rel. luciferase activity
Murine Acvr2b
  rel. luciferase activity (SBE reporter, COS-1 cells): 171 rel. luciferase activity
Murine Actr1 b
  rel. luciferase activity (SBE reporter, COS-1 cells): 2.81 rel. luciferase activity
Murine Acvrl1
  rel. luciferase activity (SBE reporter, COS-1 cells): 6.41 rel. luciferase activity
Murine Acvr1
  rel. luciferase activity (SBE reporter, COS-1 cells): 1.63 rel. luciferase activity
Murine Tβr1
  rel. luciferase activity (SBE reporter, COS-1 cells): 2.44 rel. luciferase activity
Murine Acvr1 c
  rel. luciferase activity (SBE reporter, COS-1 cells): 2.06 rel. luciferase activity
Murine Bmpr1b
  rel. luciferase activity (SBE reporter, COS-1 cells): 37.5 rel. luciferase activity

B2: hBMP2(N341 V-N384W) (ligand)
chain: B1 chain with N59V, N102W
Murine Acvr2a
  rel. luciferase activity (SBE reporter, COS-1 cells): 46.7 rel. luciferase activity
Murine Bmpr2
  rel. luciferase activity (SBE reporter, COS-1 cells): 262 rel. luciferase activity
Murine Acvr2b
  rel. luciferase activity (SBE reporter, COS-1 cells): 156 rel. luciferase activity
Murine Actr1 b
  rel. luciferase activity (SBE reporter, COS-1 cells): 3.4 rel. luciferase activity
Murine Acvrl1
  rel. luciferase activity (SBE reporter, COS-1 cells): 7.57 rel. luciferase activity
Murine Acvr1
  rel. luciferase activity (SBE reporter, COS-1 cells): 1.23 rel. luciferase activity
Murine Tβr1
  rel. luciferase activity (SBE reporter, COS-1 cells): 2.52 rel. luciferase activity
Murine Acvr1 c
  rel. luciferase activity (SBE reporter, COS-1 cells): 2.75 rel. luciferase activity
Murine Bmpr1a
  rel. luciferase activity (SBE reporter, COS-1 cells): 24.6 rel. luciferase activity
Murine Bmpr1b
  rel. luciferase activity (SBE reporter, COS-1 cells): 28.8 rel. luciferase activity

Reference: patent EP2784083A1 (Charité - Universitätsmedizin Berlin, dated 2014)
